The values that follow come from paper PMC12674617.

Sequences and labels used below:
B1: full-length BICD2 tagged on the C-terminus with mini-TurboID (BICD2-mTrbo) [human] / Dynein intermediate chain (DYNC1I1) [human (endogenous in HEK293)] (parent)
chain 1: MSAPSEEEEYARLVMEAQPEWLRAEVKRLSHELAETTREKIQAAEYGLAVLEEKHQLKLQFEELEVDYEAIRSEMEQLKEAFGQAHTNHKKVAADGESREESLIQESASKEQYYVRKVLELQTELKQLRNVLTNTQSENERLASVAQELKEINQNVEIQRGRLRDDIKEYKFREARLLQDYSELEEENISLQKQVSVLRQNQVEFEGLKHEIKRLEEETEYLNSQLEDAIRLKEISERQLEEALETLKTEREQKNSLRKELSHYMSINDSFYTSHLHVSLDGLKFSDDAAEPNNDAEALVNGFEHGGLAKLPLDNKTSTPKKEGLAPPSPSLVSDLLSELNISEIQKLKQQLMQMEREKAGLLATLQDTQKQLEHTRGSLSEQQEKVTRLTENLSALRRLQASKERQTALDNEKDRDSHEDGDYYEVDINGPEILACKYHVAVAEAGELREQLKALRSTHEAREAQHAEEKGRYEAEGQALTEKVSLLEKASRQDRELLARLEKELKKVSDVAGETQGSLSVAQDELVTFSEELANLYHHVCMCNNETPNRVMLDYYREGQGGAGRTSPGGRTSPEARGRRSPILLPKGLLAPEAGRADGGTGDSSPSPGSSLPSPLSDPRREPMNIYNLIAIIRDQIKHLQAAVDRTTELSRQRIASQELGPAVDKDKEALMEEILKLKSLLSTKREQITTLRTVLKANKQTAEVALANLKSKYENEKAMVTETMMKLRNELKALKEDAATFSSLRAMFATRCDEYITQLDEMQRQLAAAEDEKKTLNSLLRMAIQQKLALTQRLELLELDHEQTRRGRAKAAPKTKPATPSL
chain 2: MSDKSDLKAELERKKQRLAQIREEKKRKEEERKKKEADMQQKKEPVQDDSDLDRKRRETEALLQSIGISPEPPLVQPLHFLTWDTCYFHYLVPTPMSPSSKSVSTPSEAGSQDSGDLGPLTRTLQWDTDPSVLQLQSDSELGRRLHKLGVSKVTQVDFLPREVVSYSKETQTPLATHQSEEDEEDEEMVESKVGQDSELENQDKKQEVKEAPPRELTEEEKQQILHSEEFLIFFDRTIRVIERALAEDSDIFFDYSGRELEEKDGDVQAGANLSFNRQFYDEHWSKHRVVTCMDWSLQYPELMVASYNNNEDAPHEPDGVALVWNMKFKKTTPEYVFHCQSSVMSVCFARFHPNLVVGGTYSGQIVLWDNRSHRRTPVQRTPLSAAAHTHPVYCVNVVGTQNAHNLITVSTDGKMCSWSLDMLSTPQESMELVYNKSKPVAVTGMAFPTGDVNNFVVGSEEGTVYTACRHGSKAGIGEVFEGHQGPVTGINCHMAVGPIDFSHLFVTSSFDWTVKLWTTKHNKPLYSFEDNADYVYDVMWSPVHPALFACVDGMGRLDLWNLNNDTEVPTASVAIEGASALNRVRWAQAGKEVAVGDSEGRIWVYDVGELAVPHNDEWTRFARTLVEIRANRADSEEEGTVELSA

In this assay the parent is B1. The experiment in a line: co-immunoprecipitation (V5 trap beads) with western blot quantification. The following applies: parent: 1, read off a plot.
For chain 1 R694C, the ratio to parent came out at 5.1.
Next, chain 1 R747C: 4.6; chain 1 N188T: 1.8.
